# Measurements taken from publication PMC12379891.
# Biological target: AeCRK^G359E (kinase-dead cysteine-rich receptor-like kinase of Aeschynomene evenia), mCherry-tagged and YFP-tagged copies (Aeschynomene evenia)
# Experiment: co-IP
row,fold enrichment in the co-IP over the negative control MtLYK3-CFP [fold],Substance
1,7.37,"AeCRK^G359E (kinase-dead cysteine-rich receptor-like kinase of Aeschynomene evenia), mCherry-tagged and YFP-tagged copies"
2,2.9,AeRLCK2-YFP (receptor-like cytoplasmic kinase 2 of Aeschynomene evenia) (natural protein)
